Measurements taken from IntAct's records for PubMed 26751641.

Experiments:
[1] = biological target: chd1_human CHD1 (UniProt O14646)
[2] = biological target: chd1_human CHD1 (UniProt O14646); remark: listed apart in the source

Chain of UniProt O14646 (O14646 whole entry): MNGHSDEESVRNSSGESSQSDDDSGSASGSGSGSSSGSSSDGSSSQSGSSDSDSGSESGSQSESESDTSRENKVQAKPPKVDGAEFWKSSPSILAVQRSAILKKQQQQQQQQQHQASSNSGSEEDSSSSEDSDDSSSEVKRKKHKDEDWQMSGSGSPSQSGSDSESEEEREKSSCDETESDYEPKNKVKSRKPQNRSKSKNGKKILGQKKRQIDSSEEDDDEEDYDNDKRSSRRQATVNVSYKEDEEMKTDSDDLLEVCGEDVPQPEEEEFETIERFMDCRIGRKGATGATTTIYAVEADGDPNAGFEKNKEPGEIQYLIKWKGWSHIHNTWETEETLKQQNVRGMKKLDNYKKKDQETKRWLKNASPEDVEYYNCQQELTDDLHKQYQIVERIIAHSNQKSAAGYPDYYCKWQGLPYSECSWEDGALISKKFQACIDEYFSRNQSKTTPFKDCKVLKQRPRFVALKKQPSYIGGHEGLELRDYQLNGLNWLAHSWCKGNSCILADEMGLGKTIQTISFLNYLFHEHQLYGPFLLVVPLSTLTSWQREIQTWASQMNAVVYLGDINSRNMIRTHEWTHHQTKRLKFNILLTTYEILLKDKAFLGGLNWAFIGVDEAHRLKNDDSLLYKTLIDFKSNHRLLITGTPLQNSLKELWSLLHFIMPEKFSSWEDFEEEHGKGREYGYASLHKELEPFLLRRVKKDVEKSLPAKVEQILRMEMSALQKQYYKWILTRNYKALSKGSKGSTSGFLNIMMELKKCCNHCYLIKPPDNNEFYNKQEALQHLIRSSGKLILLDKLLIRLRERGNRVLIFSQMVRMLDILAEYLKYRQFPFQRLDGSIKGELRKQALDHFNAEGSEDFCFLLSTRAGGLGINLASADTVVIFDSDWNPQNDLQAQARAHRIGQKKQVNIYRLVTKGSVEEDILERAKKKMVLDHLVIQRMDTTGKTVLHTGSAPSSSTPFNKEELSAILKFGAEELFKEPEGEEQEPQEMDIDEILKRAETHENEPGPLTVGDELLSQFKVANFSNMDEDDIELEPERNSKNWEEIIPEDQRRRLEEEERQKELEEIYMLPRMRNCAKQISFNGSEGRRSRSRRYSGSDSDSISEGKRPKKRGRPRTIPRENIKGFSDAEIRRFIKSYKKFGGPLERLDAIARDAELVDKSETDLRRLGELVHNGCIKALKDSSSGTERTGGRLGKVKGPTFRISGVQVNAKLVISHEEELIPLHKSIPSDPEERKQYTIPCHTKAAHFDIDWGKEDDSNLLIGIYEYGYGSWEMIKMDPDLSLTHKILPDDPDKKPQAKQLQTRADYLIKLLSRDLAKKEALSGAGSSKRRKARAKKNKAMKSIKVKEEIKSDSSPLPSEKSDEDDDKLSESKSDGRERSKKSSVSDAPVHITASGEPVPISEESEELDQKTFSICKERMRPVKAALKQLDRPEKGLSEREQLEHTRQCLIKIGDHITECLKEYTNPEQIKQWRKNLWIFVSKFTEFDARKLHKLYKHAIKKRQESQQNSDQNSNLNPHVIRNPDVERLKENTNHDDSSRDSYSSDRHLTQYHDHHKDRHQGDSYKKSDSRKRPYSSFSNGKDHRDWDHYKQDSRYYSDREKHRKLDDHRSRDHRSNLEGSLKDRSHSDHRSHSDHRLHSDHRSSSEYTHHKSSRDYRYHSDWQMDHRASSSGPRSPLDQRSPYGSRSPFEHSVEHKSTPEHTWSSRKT

Row | effect of a mutation on the interaction [1] | effect of a mutation on the interaction [2] | Substance
1 | disrupting interaction strength |  | Lysine-specific histone demethylase 1A (Homo sapiens) (from UniProt O60341-1) K114A
2 |  | disrupting interaction strength | Lysine-specific histone demethylase 1A (Homo sapiens) (from UniProt O60341-1) R113A
